Numbering of substitutions follows the chain as printed. In names and notes the source's numbering stands. Values belong to the binder of their own block, whether it stands above or below them.
Key:
[1] = target: T1, circularly permuted cyno TfR apical domain (cynomolgus monkey, biotin on the Avi tag); assay: SPR
T1 construct: a linker between the two segments is not described; also called cyTfR apical domain; not shown: Avi tag and PreScission site left after Ulp1 cleavage
T1 chain: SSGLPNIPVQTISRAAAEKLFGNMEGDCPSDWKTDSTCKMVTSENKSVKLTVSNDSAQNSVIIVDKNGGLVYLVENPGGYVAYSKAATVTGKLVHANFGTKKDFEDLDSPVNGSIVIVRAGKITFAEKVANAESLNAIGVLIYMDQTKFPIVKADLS
Description: (§1) Biacore™ Series S CM5 sensor chips were immobilized with anti-human Fab (GE Healthcare, 28958325). Molecules were captured on each flow cell and serial 3-fold dilutions of human TfR apical domain (2, 0.67, 0.22, 0.074, 0.025, and 0 μM) and cynomologous TfR apical domain (4, 1.3, 0.44, 0.15, 0.05, and 0 μM) were injected at a flow rate of 30 μL/min using single cycle kinetics method. Each sample was analyzed with a 60-second association and a 3-minute dissociation. After each cycle, the chip was regenerated using 10 mM glycine-HCl (pH 2.1) for 30 seconds at 50 μL/min. Binding response was corrected by subtracting the RU from a reference flow cell. A 1:1 Langmuir model of simultaneous fitting of kₒₙ and koff was used for kinetics analysis using Biacore™ 8K Evaluation Software. Table 32A below summarizes the binding affinities of selected clones for human and cynomolgus TfR apical domains.
(§2) The phage library was panned against biotinylated human TfR apical domain immobilized to magnetic streptavidin beads. Four rounds of phage panning were performed and enriched clones were sequenced. Unique hits were cloned onto an anti-BACE1 hIgG1 monoclonal antibody containing the “LALA” mutations, expressed in HEK293 cells, and purified by protein A chromatography. Affinity to human and cyno TfR apical domain was measured by SPR. Clones were evaluated for TfR-specific cell binding (FIGS. 43A and 43B).

[2] = target: T2, circularly permuted human TfR apical domain (human, biotin on the Avi tag); assay: SPR
T2 construct: a linker between the two segments is not described; also called huTfR apical domain; not shown: Avi tag and PreScission site left after Ulp1 cleavage
T2 chain: T1 chain with K39R, N45S, S47N, G69R, D108Y, S109T, K153N, D155E
Description: as §1, §2

[3] = target: T3, human TfR on HEK293T cells (human, UniProt P02786 1-760); assay: cell uptake at 37 C into HEK293T human TfR positive cells, anti-human IgG staining, imaging (corrected spot intensity)
T3 construct: also called huTfR expressing cells; human TfR-positive cells
Description: (§3) HEK293T, CHO:cyTfR, and CHO cells were plated at 40,000 cells/well of 96-well plates in standard growth media (DMEM (Gibco™ 11995073)+10% FBS (VWR 89510⁻¹⁸⁸)+1×Pen/Strep (Gibco 15140122)). Approximately 24 hours later, molecules were diluted into standard growth media warmed to 37° C. Old media was removed from the cells, and the diluted molecules were added to the cells. Cells were incubated at 37° C. for 45 minutes. Cells were then washed with PBS and then fixed for 10 minutes in 4% PFA (Electron Microscopy Sciences 15714-S). Cells were washed with PBS and then blocked with 5% BSA, 0.3% TritonX100 in PBS for 30 minutes. […] Cells were washed with PBS, imaged on an Opera Phenix, and images were analyzed with Harmony software.

[4] = target: T4, cynomolgus monkey TfR on CHO cells (cynomolgus monkey, UniProt Q5RDH6 1-760 (Pongo abelii entry)); assay: cell uptake at 37 C into CHO cells expressing cynomolgus monkey TfR, anti-human IgG staining, imaging (corrected spot intensity)
T4 construct: also called CHO:cyTfR; cyTfR expressing cells
T4 chain: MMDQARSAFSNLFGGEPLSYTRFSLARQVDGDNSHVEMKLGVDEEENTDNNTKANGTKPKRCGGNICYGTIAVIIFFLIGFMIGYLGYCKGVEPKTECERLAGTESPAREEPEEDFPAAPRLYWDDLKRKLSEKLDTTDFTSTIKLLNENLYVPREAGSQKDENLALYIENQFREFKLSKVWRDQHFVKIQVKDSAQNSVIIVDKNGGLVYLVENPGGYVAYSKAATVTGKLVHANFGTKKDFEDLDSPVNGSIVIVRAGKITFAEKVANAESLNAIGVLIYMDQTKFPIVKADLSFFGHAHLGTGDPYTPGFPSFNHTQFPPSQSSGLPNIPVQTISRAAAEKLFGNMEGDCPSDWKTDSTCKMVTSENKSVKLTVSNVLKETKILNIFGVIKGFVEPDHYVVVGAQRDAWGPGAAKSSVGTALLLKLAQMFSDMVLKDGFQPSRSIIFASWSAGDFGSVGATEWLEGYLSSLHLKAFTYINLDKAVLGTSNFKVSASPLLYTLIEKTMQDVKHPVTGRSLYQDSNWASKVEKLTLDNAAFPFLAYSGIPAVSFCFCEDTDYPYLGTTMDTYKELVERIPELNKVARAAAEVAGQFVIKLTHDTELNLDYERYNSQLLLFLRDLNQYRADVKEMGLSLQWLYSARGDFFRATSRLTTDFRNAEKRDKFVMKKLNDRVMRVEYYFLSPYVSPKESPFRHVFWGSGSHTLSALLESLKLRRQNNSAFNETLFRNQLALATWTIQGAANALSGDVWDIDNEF
Description: as §3

human CD98hc [5] = target: T5, human CD98hc (human, UniProt P08195 109-529); assay: SPR (Biacore); format not stated
T5 construct: The construct used on the Biacore is not described; also called CD98 heavy chain; 4F2 heavy chain
T5 sequence: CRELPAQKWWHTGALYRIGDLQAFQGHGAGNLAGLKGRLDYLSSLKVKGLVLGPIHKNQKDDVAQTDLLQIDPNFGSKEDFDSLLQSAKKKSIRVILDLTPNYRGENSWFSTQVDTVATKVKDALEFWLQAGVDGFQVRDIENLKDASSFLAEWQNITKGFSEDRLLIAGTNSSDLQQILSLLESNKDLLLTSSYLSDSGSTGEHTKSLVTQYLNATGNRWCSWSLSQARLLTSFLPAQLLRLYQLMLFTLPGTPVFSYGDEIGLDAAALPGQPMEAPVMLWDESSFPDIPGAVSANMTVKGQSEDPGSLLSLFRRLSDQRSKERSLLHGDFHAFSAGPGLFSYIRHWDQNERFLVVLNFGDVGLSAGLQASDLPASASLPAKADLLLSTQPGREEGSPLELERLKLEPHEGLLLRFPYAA
Description: A second round of affinity maturation using phage display was performed to increase the affinity of the LLB1 family to CD98hc (Table 11). The backbone of the library was the clone LLB1-3. Library LLB1-AM3 expands the library positions from the original clone using NHK or ARY. Library LLB1-AM4 expands the libraries and includes a mixture of residues that were found previously at those positions in the LLB1 family. The library was assembled using Kunkel mutagenesis and screened to human CD98hc. […] The format was anti-BACE1 Fabs having full effector function and in a bivalent format (i.e., no knob and hole mutations). Cell binding of the clones was also tested in HeLa cells for huCD98hc binding, CHO:cyCD98hc cells for cyno binding, and CHO cells as a negative control.

human CD98hc [6] = target: T6, human CD98hc (human, UniProt P08195 109-529); assay: affinity as listed in study design table; method not given there
T6 construct: also called huCD98hc; CD98 heavy chain
T6 sequence: T5 sequence

human CD98hc [7] = target: T6, human CD98hc; assay: as above; remark: listed apart in the source
[8] = target: T7, circularly permuted human TfR apical domain (human); assay: method not named for this table (Biacore elsewhere)
T7 construct: TfR residues 326-379 stand N-terminal to 194-296, loop 297-325 deleted; also called huTfR Apical Domain
T7 chain: T1 chain with K39R, N45S, S47N, G69R, D108Y, S109T, K153N, D155E

[9] = target: T8, circularly permuted cyno TfR apical domain (cynomolgus monkey); assay: as above
T8 construct: same design as the human construct; also called cyTfR Apical Domain; cynomolgus TfR apical domain
T8 chain: T1 chain

Kd [1]: 1800 nM
Kd [2]: 480 nM
binding result [3]: binds
binding result [4]: binds
B1: Clone 1 with LALA (Fc fusion)
chain: APEAAGGPSVFLFPPKPKDTLMISRTPEVTCVVVDVSHEDPEVKFNWYVDGVEVHNAKTKPREEQYNSTYRVVSVLTVLHQDWLNGKEYKCKVSNKALPAPIEKTISKAKGQPREPQVYTLPPSRDELTKNQVSLTCLVKGFYPSDIAVKWGSEVAPENNYKTTPPVLDSDGSFFLYSKLTVDKSRWQQGNIFACTVMHEALHNHYTLKMLSLSPGK
notes: Fc part only

Kd [1]: 6000 nM
Kd [2]: 1500 nM
binding result [3]: binds
binding result [4]: binds
B2: Clone 3 with LALA (Fc fusion)
chain: B1 chain with K150L, E154A, I192V, L208V, M210G
notes: Fc part only

Kd (human CD98hc [5]): 175 nM
B3: LLB1-3-16-2 (Fc fusion)
chain: APELLGGPSVFLFPPKPKDTLMISRTPEVTCVVVDVSHEDPEVKFNWYVDGVEVHNAKTKPREEQYNSTYRVVSVLTVLHQDWLNGKEYKCKVSNKALPAPIEKTISKAKGQPREPQVYTLPPSRDELTKNQVSLTCLVKGFYPSDIAVEWRTYKPYETNYKTTPPVLDSDGSFFLYSKLTVDKSRWQQGDIFVCDVMHEALHNHFTIKKLSLSPGK

Kd (human CD98hc [5]): 160 nM
B4: LLB1-3-25-2 (Fc fusion)
chain: B3 chain
notes: a difference, if any, lies outside the printed positions

Kd (human CD98hc [5]): 42 nM
B5: LLB1-3-25-1 (Fc fusion)
chain: B3 chain with M198L
notes: as for B4

Kd (human CD98hc [5]): 1000 nM
B6: LLB1-3 D380E (Fc fusion)
chain: B3 chain with T153S, T159N, D191N, F206Y

Kd (human CD98hc [5]): 880 nM
B7: LLB1-3-4-1 (Fc fusion)
chain: B3 chain with T159N, D191N, F206Y

Kd (human CD98hc [5]): 32 nM
B8: LLB1-3-16 (Fc fusion)
chain: B3 chain with M198L
notes: also called Clone 1-3-16; LLB1-1-3-16

Kd (human CD98hc [5]): 330 nM
B9: LLB1-3-14-1 (Fc fusion)
chain: B3 chain with T153S, T159N, M198L, F206Y

Kd (human CD98hc [5]): 1200 nM
B10: LLB1-3-31-2 (Fc fusion)
chain: B3 chain with K210S

Kd (human CD98hc [5]): 470 nM
B11: LLB1-3-10-1 (Fc fusion)
chain: B3 chain with T153S, T159N, D191N, M198L, F206Y

Kd (human CD98hc [6]): 390 nM
B12: Clone 28: LLB2-37 bivalent, non-binding Fabs (Fc fusion)
chain: APELLGGPSVFLFPPKPKDTLMISRTPEVTCVVVDVSHEDPEVKFNWYVDGVEVHNAKTKPREEQYNSTYRVVSVLTVLHQDWLNGKEYKCKVSNKALPAPIEKTISKAKGQPREPQVYTLPPSRDELTKNQVSLTCLVKGFYPSDIAVLWNSQFHLENNYKTTPPVLDSDGSFFLYSKLTVDKSRWQQGNIFACNVYHEALHNHYTFKNLLLSPGK
notes: bivalent; effector positive

Kd (human CD98hc [6]): 100 to 200 nM
Kd (human CD98hc [7]): 100 to 200 nM
B13: Clone 26: LLB2-10-8 bivalent, non-binding Fabs (Fc fusion)
chain: B12 chain with Q154R, H156V, N191E, L212A
notes: bivalent; effector positive

Kd (human CD98hc [7]): 550 nM
B14: Clone 38: LLB2-10-8-d6 bivalent, non-binding Fabs, effector negative (Fc fusion)
chain: B12 chain with L4A, L5A, P99G, Q154R, H156V, I192V, L212A

Kd (human CD98hc [7]): 550 nM
B15: Clone 33: LLB2-10-8-d6 bivalent, non-binding Fabs (Fc fusion)
chain: B12 chain with Q154R, H156V, I192V, L212A
notes: bivalent; effector positive

Kd (human CD98hc [7]): 100 to 200 nM
B16: Clone 36: LLB2-10-8 bivalent, non-binding Fabs, effector negative (Fc fusion)
chain: B12 chain with L4A, L5A, P99G, Q154R, H156V, N191E, L212A

Kd [8]: 79 nM
Kd [9]: 1100 nM
B17: 42.2.19 mono (Fc fusion)
chain 1: APEAAGGPSVFLFPPKPKDTLMISRTPEVTCVVVDVSHEDPEVKFNWYVDGVEVHNAKTKPREEQYNSTYRVVSVLTVLHQDWLNGKEYKCKVSNKALGAPIEKTISKAKGQPREPQVYTLPPSRDELTKNQVSLWCLVKGFYPSDIAVEWFYDDSKLTNYKTTPPVLDSDGSFFLYSKLTVDKSRWQPRGLFACEVMHEALHNHYTYKLLGESPGK
chain 2: APEAAGGPSVFLFPPKPKDTLMISRTPEVTCVVVDVSHEDPEVKFNWYVDGVEVHNAKTKPREEQYNSTYRVVSVLTVLHQDWLNGKEYKCKVSNKALGAPIEKTISKAKGQPREPQVYTLPPSRDELTKNQVSLSCAVKGFYPSDIAVEWESNGQPENNYKTTPPVLDSDGSFFLVSKLTVDKSRWQQGNVFSCSVMHEALHNHYTQKSLSLSPGK
notes: knob+P329G+LALA with TfR site, hole+P329G+LALA without
